Substitutions are numbered along the chain they refer to. In names and notes the source's numbering stands. Several values for one entry are separate records, joined by “and”; a condition that tells them apart may be missing. Equal values may be shown once.
Assays:
[1] = target: the molecule itself; experiment: mass photometry; free enzyme, 500 nM, 30 mM HEPES buffer, pH 7.5, 20 °C; histograms fitted to the sum of five Gaussian distributions
[2] = target: the molecule itself; experiment: not stated; oligomeric state under all conditions of the kinetic experiments (Fig. S8); method not given
[3] = target: the molecule itself; experiment: mass photometry; in the presence of substrates, under the reaction conditions; fitted globally with the kinetic data (association constants monomer to trimer K_(a,3E), hexamer K_(a,6E), higher oligomers K_(a,agg))

B1: fluorinase FlA1 from Streptomyces sp. strain MA37 (5'-fluoro-5'-deoxyadenosine synthase), wild type (enzyme, UniProt W0W999 1-299, looked up)
chain: MAANGSQRPIIAFMSDLGTTDDSVAQCKGLMHSICPGVTVVDVCHSMTPWDVEEGARYIVDLPRFFPEGTVFATTTYPATGTTTRSVAVRIRQAAKGGARGQWAGSGDGFERADGSYIYIAPNNGLLTTVLEEHGYIEAYEVTSTKVIPANPEPTFYSREMVAIPSAHLAAGFPLAEVGRRLDDSEIVRFHRPAVEISGEALSGVVTAIDHPFGNIWTNIHRTDLEKAGIGQGKHLKIILDDVLPFEAPLTPTFADAGAIGNIAFYLNSRGYLSLARNAASLAYPYNLKAGLKVRVEAR
notes: fluorinase FlA1 (5'-fluoro-5'-deoxyadenosine synthase), Streptomyces sp. strain MA37; Exists as trimers, hexamers and higher oligomers; also called wild-type FlA1; wild-type fluorinase; source: overexpressed in Escherichia coli, purified
stoichiometry N [1]: 3 and 6

B2: fluorinase FlA1 variant C44T (enzyme, Streptomyces sp. strain MA37, UniProt W0W999 1-299, looked up)
chain: B1 chain with C44T
notes: fluorinase FlA1, Streptomyces sp. strain MA37, with C44T; everywhere else C44T; also called FlA1+C44T
stoichiometry N [2]: 6

B3: fluorinase FlA1 double mutant W50F+A279R (enzyme, Streptomyces sp. strain MA37, UniProt W0W999 1-299, looked up)
chain: B1 chain with W50F, A279R
notes: fluorinase FlA1, Streptomyces sp. strain MA37, wild type with W50F and A279R; also called A279R+W50F; FlA1+A279R+W50F
stoichiometry N [3]: 6

B4: fluorinase FlA1 variant W50F (enzyme, Streptomyces sp. strain MA37, UniProt W0W999 1-299, looked up)
chain: B1 chain with W50F
notes: fluorinase FlA1, Streptomyces sp. strain MA37, wild type with W50F
binding result [3]: binds

B5: fluorinase FlA1 variant A279R (enzyme, Streptomyces sp. strain MA37, UniProt W0W999 1-299, looked up)
chain: B1 chain with A279R
notes: fluorinase FlA1, Streptomyces sp. strain MA37, wild type with A279R
stoichiometry N [3]: 6
